Reference: patent US20100196385A1 (AstraZeneca / MedImmune, published 2010)

B1: 2H10 (antibody, IgG4, V domains shown)
VH: QVQLVESGGGVVQPGRSLRLSCAASGFTFSRHGMHWVRQAPGKGLEWVAVVWFDGSNIYYADSVKGRFTISRDNSKNTLYLQMNSLRAEDTAMYYCARDSRIAAADYWGQGTLVTVSS
VL: SYELTQPPSVSVSPGQTVSITCSGDKLGDKYVCWYQQKPGQSPVLVIYQESKRPSGIPERFSGSSSGNTATLTISGTQAMDEADYYCQTWDSSLVVFGGGTKLTVL
notes: Fully human; used for IgG4 rows and where no isotype is printed; also called 2H10 IgG4
B2: 4B4 (antibody, IgG4, V domains shown)
VH: QVLLIQSGAEVKKPGASVQVSCKASGYTFTNYGVIWVRQAPGQGLEYMGWISAYNGNTNYAQKLQDRVTMTSDTSTTTAYMELRSLRSDDTAVYYCARELGSSFDYWGQGTLVTVSS
VL: SYELTQPPSVSVSPGQTARITCSGDALPKKYAYWYQQKSGQAPVLVIYEDIKRPSGIPERFSGSSSGTMATLTISGAQVEDEADYYCFSTDNSGDHSVFGGGTKLTVL
notes: Fully human; used for IgG4 rows and where no isotype is printed; also called 4B4 IgG4; 4B4.1
B3: 9G8 (antibody, IgG4, V domains shown)
VH: QLQLQESGPGLVKPSETLSLSCTVSGGSISSSSSYWGLIRQPPGKGLEWIGSIYYSGSTYYSPSLKSRVSISVDTSKNQFSLKLSSVTAADTAVYFCARQGYGGHPDVFDIWGQGTMVTVSS
VL: SSELTQSPSVSVSPGQTARITCSGDKLGDVYVCWYQQKTGQSPVLVIYEDTKRPSGIPERFSGSNSGNTATLTISGTQVMDEADYYCQAWDSTTAVIFGGGTKLTVL
notes: Fully human; used for IgG4 rows and where no isotype is printed; also called 9G8 IgG4
B4: 21H3 (antibody, IgG4, V domains shown)
VH: QVQLVQSGAEVKKPGASVKVSCKASGYTFTNYGITWVRQAPGQGPEWMGWISAYNGNTNYAQKLQDRVTVTTDTSTSTAYMELRSLRSDDTAVYYCARDRVPRIPVTTEAFDIWGQGTMVTVSS
VL: QSVLTQPPSASGTPGQRVTISCSGSSSNIGSYFVYWYQQLPGTAPKLLIYRNNQRPSGVPDRFSGSESGTSASLAISGLRSEDEADYYCAAWDDSLSGHWVFGGGTRLTVL
notes: Fully human; used for IgG4 rows and where no isotype is printed; also called 21H3 IgG4

What follows are binders tested against T1, full length human DLL4 (human, UniProt Q9NR61 27-685) (assay: FACS competition, unlabeled antibody vs competitor Alexa-647 4B4, HEK293 cells with human DLL4).
T1 construct: whole, on cells; also called native DLL4 expressed in HEK293 cells
Experimental: The ability of the purified DLL4 antibodies to inhibit the binding of other DLL4 antibodies to human DLL4 was assessed using a FACS assay. Briefly, antibodies were directly labelled with Alexa-647 using a commercially available labelling kit (e.g. Molecular Probes catalog #A30009, A-20186) as per the manufacturer's instructions. To determine the level of cross-competition, unlabelled anti-DLL4 antibodies (final concentration: 10-0.01 μg/ml) diluted in PBS containing 2% FCS were added to DLL4-expressing HEK 293 cells (as described in example 6; 50000 cells/well diluted in PBS containing 2% FCS) and incubated for 1 h at 4° C. Subsequently, Alexa-647 labeled anti-DLL4 antibodies were added at a final concentration of 0.1 μg/ml and plates were incubated for a further 1 h at 4° C. prior to washing and reading on a FACSCalibur instrument. Data that summarizes the ability of unlabeled antibodies (10, 1, 0.1 μg/ml) to compete with labeled 21H3RK for binding to human DLL4 is included in FIG. 3. Additional data that summarizes the ability of unlabeled antibodies to compete with labeled 21H3RK and 4B4 for binding to human DLL4 is included in Table 22.

T1 sequence (Q9NR61 27-685): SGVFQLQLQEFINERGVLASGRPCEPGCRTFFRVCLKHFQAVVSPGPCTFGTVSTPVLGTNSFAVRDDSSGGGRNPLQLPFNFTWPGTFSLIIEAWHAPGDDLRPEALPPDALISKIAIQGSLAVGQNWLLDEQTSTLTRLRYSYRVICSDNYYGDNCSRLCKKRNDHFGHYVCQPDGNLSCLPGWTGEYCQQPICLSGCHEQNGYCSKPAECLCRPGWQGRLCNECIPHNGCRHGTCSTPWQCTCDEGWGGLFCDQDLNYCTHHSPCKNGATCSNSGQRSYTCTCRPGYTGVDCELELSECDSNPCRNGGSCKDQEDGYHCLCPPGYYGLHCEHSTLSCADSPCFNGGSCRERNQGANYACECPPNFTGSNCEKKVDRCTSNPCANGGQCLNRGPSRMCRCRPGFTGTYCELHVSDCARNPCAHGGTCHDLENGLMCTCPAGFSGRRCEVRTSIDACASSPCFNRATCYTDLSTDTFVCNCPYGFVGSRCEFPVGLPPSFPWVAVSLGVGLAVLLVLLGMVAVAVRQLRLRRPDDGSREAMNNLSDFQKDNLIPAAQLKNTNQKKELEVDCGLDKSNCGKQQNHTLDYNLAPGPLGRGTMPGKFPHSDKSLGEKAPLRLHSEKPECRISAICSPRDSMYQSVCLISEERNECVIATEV

Row | Binder | IC50 [µg/mL]
1 | B1 | 1.15
2 | B2 | 0.348
3 | B3 | 0.856
4 | B4 | 0.274

The binders below were run against T2, human soluble DLL4 (R&D systems catalog #1056-D4-050) (human, UniProt Q9NR61 27-524) (assay: Biacore T100, antibody immobilised, soluble human DLL4 as analyte).
T2 construct: Catalog number as printed; perhaps the same product as #1506-D4; also called antigen DLL4
In short: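 Anti-DLL4 antibodies amine-coupled to CM5 chip (<200 RU). Soluble DLL4 injected from 32-64 nM in 3-fold dilutions, in triplicate, in HBS-P with 0.1 mg/ml BSA at 23° C. ka, kd and KD from a global 1:1 fit.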

T2 sequence (Q9NR61 27-524 limits assumed): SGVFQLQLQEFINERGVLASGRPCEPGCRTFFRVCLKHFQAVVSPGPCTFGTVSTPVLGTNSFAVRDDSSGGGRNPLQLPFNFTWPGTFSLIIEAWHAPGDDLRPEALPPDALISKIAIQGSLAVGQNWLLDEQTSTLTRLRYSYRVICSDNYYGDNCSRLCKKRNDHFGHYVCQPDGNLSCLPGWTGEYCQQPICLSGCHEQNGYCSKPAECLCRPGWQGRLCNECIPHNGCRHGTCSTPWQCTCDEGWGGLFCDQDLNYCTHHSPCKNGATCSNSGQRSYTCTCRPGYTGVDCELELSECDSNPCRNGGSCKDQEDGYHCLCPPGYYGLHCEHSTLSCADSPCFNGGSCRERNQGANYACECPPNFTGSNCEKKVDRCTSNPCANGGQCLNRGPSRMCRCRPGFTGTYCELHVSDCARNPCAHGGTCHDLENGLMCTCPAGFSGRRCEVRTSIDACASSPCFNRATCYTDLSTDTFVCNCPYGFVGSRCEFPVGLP

Row | Binder | Kd [nM] | koff [s⁻¹] | kon [M⁻¹ s⁻¹]
5 | B1 | 0.981 | 4.02e-05 | 40900
6 | B2 | 0.283 | 3.33e-05 | 118000
7 | B3 | 0.132 | 1.36e-05 | 103000
8 | B4 | 0.481 | 0.000152 | 317000

The binders below were run against T1, full length human DLL4 (assay: FMAT competition, purified antibody vs Alexa-647 human Notch1/Fc, 293T cells with human DLL4).
In short: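 293T cells expressing full-length DLL4, mixed with untransfected cells, were preincubated 1 h at 4 °C with serially diluted purified antibody (from 5 μg/ml). Alexa-647 human Notch1/Fc (100 ng/ml stock) was then added for 3 h at 4 °C; bound Notch1/Fc measured by FMAT fluorescence.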

Row | Binder | % inhibition at 0.020 nM [%] | % inhibition at 0.070 nM [%] | % inhibition at 0.21 nM [%] | % inhibition at 0.62 nM [%] | % inhibition at 1.9 nM [%] | % inhibition at 5.6 nM [%] | % inhibition at 16.7 nM [%] | IC50 [nM]
9 | B1 | 6 | -3 | 14 | 27 | 45 | 119 | 111 | 2.05
10 | B2 | 14 | 21 | 23 | 65 | 95 | 127 | 136 | 0.72
11 | B3 | 10 | 14 | 33 | 22 | 68 | 125 | 121 | 1.88
12 | B4 | -17 | -2 | 25 | 9 | 68 | 115 | 124 | 1.73

Each binder was assayed against T3, human Jagged1 (human, UniProt P78504 34-1218) (assay: FACS, 5 µg/ml, 293T cells with human Jagged1).
T3 construct: whole, on cells
In short: (§1)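 Antibodies at 5 or 15 μg/ml final in PBS/2% FCS incubated 1 h at 4 °C with transfected cells. Binding taken as the geometric mean fluorescence shift in Jagged1- or Dll1-transfected cells versus mock-transfected cells.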

T3 sequence (P78504 34-1218): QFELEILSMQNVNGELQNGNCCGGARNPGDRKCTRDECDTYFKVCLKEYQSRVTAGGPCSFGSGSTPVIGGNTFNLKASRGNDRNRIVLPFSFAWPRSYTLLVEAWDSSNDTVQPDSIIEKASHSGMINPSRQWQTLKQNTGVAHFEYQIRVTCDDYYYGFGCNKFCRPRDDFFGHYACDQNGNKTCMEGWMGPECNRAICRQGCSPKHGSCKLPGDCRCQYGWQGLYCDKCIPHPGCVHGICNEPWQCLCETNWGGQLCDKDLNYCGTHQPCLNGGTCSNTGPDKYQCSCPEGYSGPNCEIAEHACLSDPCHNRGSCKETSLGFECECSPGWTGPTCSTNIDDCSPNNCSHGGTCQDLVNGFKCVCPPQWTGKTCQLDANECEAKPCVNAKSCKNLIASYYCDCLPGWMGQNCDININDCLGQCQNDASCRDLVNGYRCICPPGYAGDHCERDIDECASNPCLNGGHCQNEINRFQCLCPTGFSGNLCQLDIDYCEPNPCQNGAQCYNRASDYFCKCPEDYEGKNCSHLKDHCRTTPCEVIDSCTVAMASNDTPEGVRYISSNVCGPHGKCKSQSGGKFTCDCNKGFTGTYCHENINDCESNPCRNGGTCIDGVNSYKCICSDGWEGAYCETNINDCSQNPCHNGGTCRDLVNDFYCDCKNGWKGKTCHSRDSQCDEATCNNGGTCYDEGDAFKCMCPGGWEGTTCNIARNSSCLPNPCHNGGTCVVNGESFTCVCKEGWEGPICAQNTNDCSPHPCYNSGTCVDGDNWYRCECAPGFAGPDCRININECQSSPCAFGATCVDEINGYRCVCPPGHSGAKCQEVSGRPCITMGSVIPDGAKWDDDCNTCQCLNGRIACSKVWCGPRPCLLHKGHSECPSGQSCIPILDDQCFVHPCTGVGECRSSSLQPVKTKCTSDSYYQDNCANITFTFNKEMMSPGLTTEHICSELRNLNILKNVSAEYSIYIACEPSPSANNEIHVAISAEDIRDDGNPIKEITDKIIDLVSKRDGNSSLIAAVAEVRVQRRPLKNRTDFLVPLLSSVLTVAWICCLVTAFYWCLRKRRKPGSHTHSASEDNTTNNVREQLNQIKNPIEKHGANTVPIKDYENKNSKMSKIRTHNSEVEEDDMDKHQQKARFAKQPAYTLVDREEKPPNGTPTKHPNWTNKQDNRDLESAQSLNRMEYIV

Row | Binder | Jagged1/293T X Geo mean
13 | B1 | 9.28
14 | B2 | 16.8
15 | B3 | 17.4
16 | B4 | 15.5

Each binder was assayed against DLL4 extracellular domain (R&D systems, catalog #1506-D4/CF) (UniProt Q9NR61 27-529, limits assumed) (assay: cell-based or functional assay).
DLL4 extracellular domain (R&D systems, catalog #1506-D4/CF), sequence (Q9NR61 27-529 limits assumed): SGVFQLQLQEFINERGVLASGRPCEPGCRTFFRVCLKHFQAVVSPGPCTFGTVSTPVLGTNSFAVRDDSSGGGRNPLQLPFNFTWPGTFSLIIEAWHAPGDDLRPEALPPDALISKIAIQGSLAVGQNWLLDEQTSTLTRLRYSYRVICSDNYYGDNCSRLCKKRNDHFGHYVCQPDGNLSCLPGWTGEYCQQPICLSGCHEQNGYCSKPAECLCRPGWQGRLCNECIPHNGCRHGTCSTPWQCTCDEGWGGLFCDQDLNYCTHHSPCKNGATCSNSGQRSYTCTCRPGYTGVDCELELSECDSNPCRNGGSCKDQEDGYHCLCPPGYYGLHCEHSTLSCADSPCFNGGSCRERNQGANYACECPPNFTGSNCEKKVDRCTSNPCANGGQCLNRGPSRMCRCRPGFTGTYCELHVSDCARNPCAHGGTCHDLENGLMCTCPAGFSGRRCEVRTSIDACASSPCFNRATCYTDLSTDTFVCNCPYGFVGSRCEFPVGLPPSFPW

Row | Binder | % inhibition 1 µg/ml, AVERAGE (HUVEC proliferation on coated DLL4) [%] | % inhibition 1 µg/ml, N = 1 (HUVEC proliferation on coated DLL4) [%] | % inhibition 1 µg/ml, N = 2 (HUVEC proliferation on coated DLL4) [%] | % inhibition 10 µg/ml, AVERAGE (HUVEC proliferation on coated DLL4) [%] | % inhibition 10 µg/ml, N = 1 (HUVEC proliferation on coated DLL4) [%] | % inhibition 10 µg/ml, N = 2 (HUVEC proliferation on coated DLL4) [%]
17 | B1 | 93 | 98 | 87 | 103 | 110 | 95
18 | B2 | 93 | 101 | 84 | 97 | 102 | 92
19 | B3 | 62 | 52 | 71 | 77 | 72 | 82
20 | B4 | 93 | 86 | 99 | 89 | 88 | 89

These binders were tested against T1, full length human DLL4 (assay: FMAT competition, supernatant vs Alexa-647 human Notch1/Fc, 293T cells with human DLL4).
In short: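 293T cells transiently expressing full-length human DLL4, mixed with untransfected cells, preincubated with hybridoma supernatant for 1 h at 4 °C, then Alexa-647 Notch1/Fc (final 6.7 ng/ml) added for 3 h at 4 °C; bound ligand read by FMAT. % inhibition scaled between non-DLL4-binding supernatants and saturating unlabeled Notch1/Fc.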

Row | Binder | % inhibition n = 1 [%] | % inhibition n = 2 [%] | % inhibition n = 3 [%] | Mean % inhibition [%]
21 | B1 | 107 | 150 | 124 | 127
22 | B2 | – | – | – | 121
23 | B3 | 112 | 98 | 143 | 118

Each binder was assayed against T3, human Jagged1 (assay: FACS, 5 µg/ml, 293T cells with human Jagged1 vs mock).
In short: as §1

Row | Binder | Jagged1/mock ratio
24 | B1 | 1.26
25 | B2 | 1.09
26 | B3 | 1.07
27 | B4 | 1.12
